Entries after “also recorded” stand apart in the source; their conditions may differ. {Fluorescein} = fluorescein label (binding site for anti-fluorescein Fab-HRP); {Biotin} = biotin (capture probe anchor)
B1: EF: Enterococcus spp probe pair: capture SEQ ID NO: 9, detector SEQ ID NO: 10 (nucleic acid, listed as Enterococcus sp.)
DNA 1: TTGGTGAGCCGTTACCTCACCAACTAGCTAATGCA
DNA 2: GTCCATCCATCAGCGACACCCGAAAGCGCCTTTCA
modifications: DNA 1: 5' {Biotin}, sugars by position and backbone not given here; DNA 2: 5' {Fluorescein}, sugars by position and backbone not given here
B2: PM: Proteus mirabilis probe pair: capture 202 (35 mer) SEQ ID NO: 3, detector 162 (35 mer) SEQ ID NO: 4 (nucleic acid, listed as Proteus mirabilis)
DNA 1: GGGTTCATCCGATAGTGCAAGGTCCGAAGAGCCCC
DNA 2: GGTCCGTAGACATTATGCGGTATTAGCCACCGTTT
modifications: DNA 1: 5' {Biotin}, sugars by position and backbone not given here; DNA 2: 5' {Fluorescein}, sugars by position and backbone not given here
B3: KE: Klebsiella & Enterobacter spp. probe pair: capture SEQ ID NO: 5, detector SEQ ID NO: 6 (nucleic acid, listed as Enterobacter sp.)
DNA 1: GTCAATCGMCRAGGTTATTAACCTYAHCGCCTTCC
DNA 2: CTGAAAGTGCTTTACAACCCGAAGGCCTTCTTCAT
modifications: DNA 1: DNA, 5' {Biotin}, backbone, methylation of C and the base at N not given here; DNA 2: DNA, 5' {Fluorescein}, backbone and methylation of C not given here; Capture probe contains degenerate positions (M, R, Y, H)
B4: EC: Escherichia coli probe pair: capture 449 (35 mer) SEQ ID NO: 1, detector 408 (35 mer) SEQ ID NO: 2 (nucleic acid, listed as Escherichia coli)
DNA 1: GTCAATGAGCAAAGGTATTAACTTTACTCCCTTCC
DNA 2: CTGAAAGTACTTTACAACCCGAAGGCCTTCTTCAT
modifications: DNA 1: 5' {Biotin}, sugars by position and backbone not given here; DNA 2: 5' {Fluorescein}, sugars by position and backbone not given here
B5: PA: Pseudomonas aeruginosa probe pair: capture SEQ ID NO: 7, detector SEQ ID NO: 8 (nucleic acid, listed as Pseudomonas aeruginosa)
DNA 1: CCCACTTTCTCCCTCAGGACGTATGCGGTATTAGC
DNA 2: TTCCGGACGTTATCCCCCACTACCAGGCAGATTCC
modifications: DNA 1: DNA, 5' {Biotin}, backbone and methylation of C not given here; DNA 2: DNA, 5' {Fluorescein}, backbone and methylation of C not given here
B6: EB: Enterobacteriaceae probe pair: capture SEQ ID NO: 11, detector SEQ ID NO: 12 (nucleic acid, listed as Enterobacter sp.)
DNA 1: CGGACTACGACATACTTTATGAGGTCCGCTTGCTC
DNA 2: GAGGTCGCTTCTCTTTGTATATGCCATTGTAGCAC
modifications: DNA 1: DNA, 5' {Biotin}, backbone and methylation of C not given here; DNA 2: DNA, 5' {Fluorescein}, backbone and methylation of C not given here

How the values were obtained:
[1] = test system: 16S rRNA in lysates of uropathogens; test: Species specificity of uropathogen probe pairs with the electrochemical sensor array (Example 1); assay type: binding; details: probe pairs of Table 1
bacterial 16S rRNA = test: Clinical validity study: UTI Chip on blinded clinical urine specimens; assay type: binding
Description: Amperometric detection of bacterial 16S rRNA. An overview of the electrochemical sensor detection strategy is presented in panel C of FIG. 1. One ml of bacteria in Luria broth, inoculated clean urine, or clinical urine samples was centrifuged at 10,000×g for 5 min. The supernatant was discarded and the bacteria were lysed by resuspension of the pellet in 10 μl of 1 M NaOH and incubation at room temperature for 5 min. In some experiments, addition of 1M NaOH was preceded by resuspension of the bacterial pellet in 10 μl of 0.1% Triton X-100, 2 mM EDTA, and 1 mg/ml lysozyme (Sigma) in 20 mM Tris-HCl, pH 8.0, and incubation at room temperature for 5 min. 50 μl of the detector probe (0.25 μM) in 2.5% bovine serum albumin (Sigma, St. Louis, Mo.) 1 M phosphate buffer, pH 7.4, were added to the bacterial lysate and incubated for 10 min at 65° C. to allow target-probe hybridization. 4 μl of the bacterial lysate/detector probe mixture was deposited on each of the working electrodes in the sensor array and incubated for 15 min at 65° C. in a humidified chamber. After washing and drying, 4 μl of 0.5 U/ml anti-fluorescein horseradish peroxidase (HRP) Fab fragments (Roche, diluted in 0.5% casein in 10 mM phosphate buffered saline, pH 7.4) were deposited on each of the working electrodes for 15 min. After washing and drying, a prefabricated plastic well manifold (GeneFluidics, Monterey Park, Calif.) was bonded to the sensor array. The sensor array was put into the chip reader (FIG. 18) and 50 μl of 3,3′,5,5′-tetramethylbenzidine (TMB), H2O2 solution (K-Blue Low Activity TMB Substrate, Neogen, Lexington, Ky.) was placed on each of the sensors in the array so as to cover all three electrodes of each sensor. Electrochemical measurements are immediately and simultaneously taken for all 16 sensors. For each array, negative control (NC) sensors were tested including the UNI capture probe, detector probe, and 2.5% bovine serum albumin (Sigma, St, Louis, Mo.) in 1 M phosphate buffer, pH 7.4, instead of bacterial lysate. The entire assay protocol was completed within 45 min from the time when bacterial lysis was commenced. Amperometric current vs. time was measured using a multichannel potentiostat (GeneFluidics). The voltage was fixed at −200 mV (vs. reference), and the electroreduction current was measured at 60 s after the HRP redox reaction reached steady state.
Clinical validity study design. Clinical urine specimens were received from routine urine cultures collected from inpatients and outpatients and submitted to the UCLA Clinical Microbiology Laboratory. Routine plating on tripticase soy agar with 5% sheep blood was performed on each specimen for phenotypic identification and colony counting while an aliquot of each specimen was held at 4° C. overnight. On the day after plating, specimens were selected for inclusion in the study on the basis of a rapid indole test for the purpose of including uropathogens other than Escherichia coli in approximately one-half of the specimens. The other half of the specimens were divided between E. coli-containing specimens and specimens determined to have ““no significant growth” or no growth” (see definitions below). Because most UTIs involve a single uropathogen, specimens determined by the clinical microbiology laboratory to have more than one organism present were excluded. Blinded specimens selected for inclusion in the study were stripped of patient identifiers and any microbiological data before delivery to the research laboratory for testing with the electrochemical sensor array.
Experiments were performed on all specimens using the 16-sensor array ‘UTI Chip’, in which the UNI, EB, EC, PM, KE, PA, and EF capture probes (defined in Tables 1 and 2) were tested in duplicate. The two remaining sensors served as negative controls (including capture and detector probes without bacterial lysate). […]

[2] = No Significant Growth specimens
[3] = specimens with Enterococcus species
[4] = specimens with Proteus mirabilis
[5] = specimens with Enterobacter aerogenes
[6] = specimens with Enterobacter cloacae
[7] = specimens with Klebsiella pneumoniae
[8] = specimens with Escherichia coli
[9] = specimens with Pseudomonas aeruginosa
[10] = specimens with Serratia marcescens
[11] = specimens with Citrobacter freundii
[12] = specimens with Citrobacter koseri
[13] = specimens with Enterobacteriaceae
[14] = specimens with Gram-negative bacteria

Row | Molecule | Species detected [1] | Species not detected [1] | Positive/Total = Percent (bacterial 16S rRNA; [2]) | Positive/Total = Percent (bacterial 16S rRNA; [3]) | Mean (range) (bacterial 16S rRNA; [4]) | Positive/Total = Percent (bacterial 16S rRNA; [4]) | Mean (range) (bacterial 16S rRNA; [5]) | Positive/Total = Percent (bacterial 16S rRNA; [5]) | Mean (range) (bacterial 16S rRNA; [6]) | Positive/Total = Percent (bacterial 16S rRNA; [6]) | Mean (range) (bacterial 16S rRNA; [7]) | Positive/Total = Percent (bacterial 16S rRNA; [7]) | Mean (range) (bacterial 16S rRNA; [8]) | Positive/Total = Percent (bacterial 16S rRNA; [8]) | Positive/Total = Percent (bacterial 16S rRNA; [9]) | Mean (range) (bacterial 16S rRNA; [10]) | Positive/Total = Percent (bacterial 16S rRNA; [10]) | also measured
1 | B1 | Ef, Eo | Ec, Kp, Pa, Pm, Sa | Ef 1/8 = 13% | Ef 2/8 = 25% | – | – | – | – | – | – | – | – | – | – | – | – | – | Mean (range) (bacterial 16S rRNA; [2]): 0.31 log10 units over background; Mean (range) (bacterial 16S rRNA; [3]): 0.99 (0.63-1.36) log10 units over background
2 | B2 | Pm | Cf, Ea, Ec, El, Eo, Ko, Kp, Pa | – | – | 0.74 (0.48-0.96) log10 units over background | Pm 3/3 = 100% | – | – | – | – | – | – | – | – | – | – | – | –
3 | B3 | Ea, El, Ko, Kp | Cf, Ec, Pa, Pm | – | – | – | – | 0.86 (0.37-1.26) log10 units over background | KE 5/5 = 100% | 0.34 log10 units over background | KE 1/1 = 100% | 1.16 (0.76-1.50) log10 units over background | KE 7/8 = 88% | – | – | – | – | – | –
4 | B4 | Ec | Cf, Ea, El Eo, Ko, Kp,; also recorded: Pa, Pm | – | – | – | – | – | – | – | – | – | – | 1.06 (0.48-1.59) log10 units over background | Ec 26/26 = 100% | – | – | – | –
5 | B5 | Pa | Ec, Ef, El, Eo, Kp, Pm | – | – | – | – | – | – | – | – | – | – | – | – | Pa 1/1 = 100% | Pa 0.36 log10 units over background | False Positive | Mean (range) (bacterial 16S rRNA; [9]): 0.55 log10 units over background
6 | B6 | Cf, Ea, Ec, El, Ko, Kp, Mm, Pm, | Ef, Eo, Pa, Sa, Ss | 0/8 = 0% | 0/8 = 0% | 1.14 (0.92-1.45) log10 units over background | 3/3 = 100% | 1.20 (0.82-1.52) log10 units over background | 5/5 = 100% | 1.08 log10 units over background | 1/1 = 100% | 1.13 (0.46-1.13) log10 units over background | 8/8 = 100% | 1.17 (0.46-1.60) log10 units over background | 25/26 = 96% | 0/1 = 0% | 1.36 log10 units over background | 1/1 = 100% | sensitivity for detection of Gram-negative bacteria in clinical urine specimens (bacterial 16S rRNA): 98%; Positive/Total = Percent (bacterial 16S rRNA; All specimens with bacteria): 46/47 = 98%^2; Positive/Total = Percent (bacterial 16S rRNA; No Growth specimens): 0/12 = 0%; Mean (range) (bacterial 16S rRNA; [11]): 1.32 (1.25-1.38) log10 units over background; Positive/Total = Percent (bacterial 16S rRNA; [11]): 2/2 = 100%; Mean (range) (bacterial 16S rRNA; [12]): 1.29 log10 units over background; Positive/Total = Percent (bacterial 16S rRNA; [12]): 1/1 = 100%; Mean (range) (bacterial 16S rRNA; [13]): 1.17 (0.46-1.60) log10 units over background; Positive/Total = Percent (bacterial 16S rRNA; [13]): 46/47 = 98%; Mean (range) (bacterial 16S rRNA; [14]): 1.17 (0.46-1.60) log10 units over background; Positive/Total = Percent (bacterial 16S rRNA; [14]): 46/47 = 98%^2; Positive/Total = Percent (bacterial 16S rRNA; specimens with Gram-positive bacteria): 0/10 = 0%; Positive/Total = Percent (bacterial 16S rRNA; specimens with Staph. saprophyticus): 0/2 = 0%
